According to paper PMC5030187 (Biochemistry, 2016):

Biological target: the molecule itself
Test: crystal structure

B1: Ag(I)-bound periplasmic sensor domain of E. coli histidine kinase CusS, CusS(39-187) (domain or fragment, UniProt P77485 39-187, looked up)
chain: VKVHFAEQDINDLKEISATLERVLNHPDETQARRLMTLEDIVSGYSNVLISLADSQGKTVYHSPGAPDIREFTRDAIPDKDAQGGEVYLLSGPTMMMPGHGHGHMEHSNWRMINLPVGPLVDGKPIYTLYIALSIDFHLHYINDLMNKL
- stoichiometry N: 2
